Reference: PMC12344292, “Structural basis for membrane microdomain formation by a human Stomatin complex” (Nature Communications, 2025)

Target: the molecule itself
Test: cryo-EM structure; single-particle analysis of native membrane vesicles holding ALFA-tagged Stomatin, isolated on ALFA Selector CE resin and eluted with 0.2 mM ALFA peptide; 20 mM K-HEPES pH 7.4, 300 mM KCl, 5 mM DTT; C16 then local C8 symmetry

B1: human Stomatin (natural protein, UniProt P27105-1 1-288, looked up)
chain: MAEKRHTRDSEAQRLPDSFKDSPSKGLGPCGWILVAFSFLFTVITFPISIWMCIKIIKEYERAIIFRLGRILQGGAKGPGLFFILPCTDSFIKVDMRTISFDIPPQEILTKDSVTISVDGVVYYRVQNATLAVANITNADSATRLLAQTTLRNVLGTKNLSQILSDREEIAHNMQSTLDDATDAWGIKVERVEIKDVKLPVQLQRAMAAEAEASREARAKVIAAEGEMNASRALKEASMVITESPAALQLRYLQTLTTIAAEKNSTIVFPLPIDMLQGIIGAKHSHLG
notes: Stomatin, human, UniProt P27105-1; full-length protein in its membrane environment; The final atomic model includes residues 14-18 and 29-278; The 16 identical chains adopt two alternating conformations (Conformer A and B); also called N-terminal ALFA-tagged human Stomatin; Stomatin complex; source: HEK293S GnTI- cells infected with BacMam baculovirus (pEG BacMam); isolated in native membrane …
stoichiometry N: 16
